This is an account of results in article PMC4530586, “STIL binding to Polo-box 3 of PLK4 regulates centriole duplication” (eLife, 2015).

In this assay the target is T1, human PLK4-PB3 (884–970), recombinant (human, UniProt O00444 884-970).
T1 construct: PLK4, human, residues 884–970 (Polo-box 3); isotope-labelled (2H, 15N, 13C) samples were used for NMR; also called Polo-box 3; source: E. coli BL21 DE3, purified (nickel resin, TEV cleavage, Superdex75 SEC); not shown: thioredoxin, N-terminal, cleaved; His6, N-terminal, cleaved
T1 sequence (looked up): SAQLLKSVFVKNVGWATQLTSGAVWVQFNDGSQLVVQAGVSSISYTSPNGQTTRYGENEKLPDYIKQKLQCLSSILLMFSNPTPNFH
Put plainly: ITC; synthetic STIL-CC peptide (414 µM) titrated into recombinant PB3 (35.5 µM); 50 mM Hepes pH 8.0, 150 mM NaCl, 1 mM TCEP; 25°C; 30 injections of 10 µl; one-site binding model. The following applies: both partners purified.

B1: synthetic STIL-CC peptide (peptide, UniProt Q15468 720-751, looked up)
peptide: PDAYRFLTEQDRQLRLLQAQIQRLLEAQSLMP
notes: also called synthetic peptide corresponding to STIL-CC; source: synthetic peptide
B1: the Kd (as a rule, the constant that tells how readily two partners part at equilibrium) stood at 280 ± 60 nM and the stoichiometry N (as a rule, the number of molecules, sites or subunits per partner or assembly) turned out to be 1.
